Square brackets hold non-standard residues; d marks the D form. Ends that are not written are not given here.

For one test, the target named is T1, FP receptor (Sus scrofa, UniProt C6GAG8).
T1 construct: from tissue; host or cells: eyecup / retinal microvessels of newborn pigs pretreated with ibuprofen
Description: Porcine eyecup model of ex vivo vasomotricity assay, PGF2α-induced constriction of retinal microvessels. The arrangement: species or system pig. Conditions: for % Vasomotor response (of max constriction): compared to maximal constriction without peptide; for change of inhibitory activity of the peptide variant relative to the parent peptide: peptides at 100 μM, porcine retinal vasomotricity assay, structure-activity summary. The source says: In order to see if the peptides could inhibit FP function using an ex vivo model, we chose porcine eyecup model, an ex vivo assay of vascular constriction in porcine retinas which we previously described and validated (Li et al., 1996 J. Pharmacol. Expt. Therapeut. 278: 370–377; Li et al., 1997 Am. J. Physiol. 273: R1283–90; Abran et al., 1997 Am. J. Physiol. 272: R995–1001). Since FP receptor densities in newborn vasculature are minimal due to down regulation by high levels of circulating prostaglandins in the perinatal period, the newborn pigs were treated with a prostaglandin synthetase blocker, ibuprofen (30 mg/Kg of bodyweight/8 h for 24 h) to increase the density of the receptors as well as their vasomotor effects. By inhibiting circulating prostaglandins, we were able to show potent inhibition of FP receptor-mediated second messenger synthesis as well as FP-mediated vascular constriction in this eyecup model.
To prepare eyecups, a circular incision was made 3–4 mm posterior to ora serrata to remove the […] segment and vitreous body with minimal handling of the retina. The remaining eyecup was fixed with pins to a wax base in a 20 ml tissue bath containing 20 ml of Kreb's buffer (pH 7.35–7.45), protease inhibitors, leupetin and aprotinin (10 μg/ml each), and equilibrated with 21% oxygen and 5% carbon dioxide at 37° C. The preparations were allowed to stabilize for 30 min. Peptides at 100 μM were added and incubation was continued for 30 min before the addition of PGF2α.
Cumulative concentration-responses of PGF2α, and TxA2 mimetic, U46619, (10^−10 to 10^−5 M) curves were constructed separately. To assess the reversibility of the antagonists, the eyecups were thoroughly washed (which would wash away the peptide) with incubation medium and concentration response curves for PGF2α were determined. The outer vessel diameter was recorded with a video camera mounted on a dissecting microscope (Zeiss M 400™) and the responses were quantified by a digital image analyzer (Sigma Scan Software, Jandel Scientific, Corte Madera, Calif.). Vascular diameter was recorded before and 10 min following the topical application of the agent.
^1Percent vasomotor response in the presence of 100 μM peptide is calculated as percent change in average vascular diameter produced by 10^−7 M PGF2α to the eyecup in the presence of the peptide compared to maximal constriction observed in the absence of the peptide.
^2Percent inhibition produced by each peptide is calculated as (100-percent vasomotor response).
Small letters indicate L-amino acids and capital letters indicate D-amino acids. I=isoleucine; L=leucine; G=glycine; H=histidine; R=Arginine; D=Aspartic acid; Y=Tyrosine; K=Lysine; A=Alanine; W=Tryptophan; E=Glutamic acid; F=Phenyl alanine; Q=Glutamine; N=Aspargine; P=Proline; S=Serine; X=Cyclohexyl alanine. Peptides were dissolved in DMSO freshly just before the experiment as 10 mM stocks and added to the eye cups 30 min before the addition of 10^−7 M PGF2α.
These peptides incorporate L- to D-amino acid changes, deletions, subtle variations in aromaticity, hydrogen bond donor status as opposed to ionic interactions and hydrophobicity.

The target of another test is T2, human FP receptor (Homo sapiens, UniProt P43088).
T2 construct: expressed in transfected cells
T2 sequence (P43088 whole entry): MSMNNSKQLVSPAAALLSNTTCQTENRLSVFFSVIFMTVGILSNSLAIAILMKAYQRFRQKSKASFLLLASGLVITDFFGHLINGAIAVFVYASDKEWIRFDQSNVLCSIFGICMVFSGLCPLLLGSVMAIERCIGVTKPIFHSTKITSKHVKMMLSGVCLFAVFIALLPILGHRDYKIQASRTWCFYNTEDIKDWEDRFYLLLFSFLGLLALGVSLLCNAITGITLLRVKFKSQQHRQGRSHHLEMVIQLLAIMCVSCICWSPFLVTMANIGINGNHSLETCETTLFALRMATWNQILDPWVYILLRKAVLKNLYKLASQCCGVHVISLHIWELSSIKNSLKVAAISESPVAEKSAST
In words: PGF2α-induced phosphoinositide hydrolysis (inositol phosphate synthesis) in HEK293 cells expressing FP receptor. Conditions: HEK293 cells stably expressing human FP receptor; 1 μM PGF2α; read-out: half maximal inhibitory concentration, inositol phosphate synthesis. The class given is cell-based. As for the experimental part:
Both PCP-8 and -10 were tested in HEK293 cells expressing the human FP receptor. For this purpose, HEK 293 cells stably expressing human FP receptor were plated in 12-well plates in DMEM medium containing 10% fetal bovine serum, penicillin (10 U/ml) and streptomycin (10 μg/ml) and cultured in a humidified atmosphere containing 5% CO2 at 37° C. After the wells were 80% confluent, the cells were labeled with 2 μCi/ml of [^3H]-myo inositol overnight. Next day, the cells were washed once with PBS, and incubated in 0.5 ml of Kreb's buffer containing 10 mM LiCl and indicated concentrations of PCP peptides for 30 min. PGF2α at 1 μM was added to the cells and the incubation was carried out for an additional 30 min. The cells were solubilized with 0.1 N NaOH for 10 min and neutralized with 0.1 N formic acid. The lysates were collected and 1 ml each of methanol and chloroform were sequentially added and vortexed briefly. After centrifugation to separate the phases, inositol phosphates were separated by ion exchange chromatography as described below (Berridge, M. J. et al., 1983, Biochem. J. 212:473–482).
Briefly, the medium was discarded and the IP3 synthesis was stopped by adding 0.6 ml ice-cold methanol. The cells were scraped and collected into polypropylene tubes. Distilled water (0.5 ml) and chloroform (0.6 ml) were added and vigorously vortexed for 2 min. The phases were separated by centrifugation at 6000×g for 10 min. The aqueous phase was applied to AG-1X-8™ (Formate form) anion exchange columns (1 ml bed volume) and free inositol was eluted with 10 ml of water, followed by 60 mM ammonium formate in 0.1 M formic acid. Then, the inositol phosphates were eluted with 5 ml of 1.2 M ammonium formate in 0.1 M formic acid. After adding 3 volumes of scintillation cocktail (Optiphase-HiSafe III), the eluates were counted by scintillation spectrophotometry.
Data are expressed as fold stimulation of inositol phosphate synthesis by 1 μM PGF2α compared to the unstimulated controls. […] The half maximal inhibitory concentrations for both PCP-8 and -10 were slightly less than 100 μM.

Setting [1] is: 100 μM peptide, 10^−7 M PGF2α, calculated as 100-percent vasomotor response.

T1 sequence (C6GAG8 1-362): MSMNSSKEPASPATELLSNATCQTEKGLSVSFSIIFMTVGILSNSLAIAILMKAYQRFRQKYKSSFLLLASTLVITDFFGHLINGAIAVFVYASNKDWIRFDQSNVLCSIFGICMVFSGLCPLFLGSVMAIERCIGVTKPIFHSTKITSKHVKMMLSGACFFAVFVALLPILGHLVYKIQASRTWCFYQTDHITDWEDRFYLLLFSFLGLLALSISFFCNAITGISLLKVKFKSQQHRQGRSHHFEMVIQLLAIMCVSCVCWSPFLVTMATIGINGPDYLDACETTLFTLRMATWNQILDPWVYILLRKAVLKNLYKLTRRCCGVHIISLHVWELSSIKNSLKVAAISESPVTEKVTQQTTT

Regarding “ILAHRDYK (Peptide antagonist derived from the sequence of the Prostaglandin F2-alpha receptor.) [PCP-13.7]”, in the test with FP receptor (setting [1]), the “% inhibition of maximal response” value is reported as 76.2%. For the same substance, in the test with FP receptor (100 μM peptide, 10^−7 M PGF2α), the “% Vasomotor response (of max constriction)” value (shortened to “% Vasomotor response”) worked out at 23.8%. The “change of inhibitory activity of the peptide variant relative to the parent peptide” value with FP receptor is “does not change the activity”.

“ILGFRDYK (Peptide antagonist derived from the sequence of the Prostaglandin F2-alpha receptor.) [PCP-13.11]”: in the test with FP receptor (setting [1]), the “% inhibition of maximal response” value is listed as 87.0%. Moreover, in the test with FP receptor (100 μM peptide, 10^−7 M PGF2α), the “% Vasomotor response” value is given as 13.0%. In addition, the “change of inhibitory activity of the peptide variant relative to the parent peptide” value in the test with FP receptor is “did not result in significant reduction of peptide inhibitory potency”.

On to “ILGHQDYK (Peptide antagonist derived from the sequence of the Prostaglandin F2-alpha receptor.) [PCP-13.18]”, for which the “% inhibition of maximal response” value in the test with FP receptor (setting [1]) is 70.0%. In addition, in the test with FP receptor (100 μM peptide, 10^−7 M PGF2α), the “% Vasomotor response” value was 30.0%. The “change of inhibitory activity of the peptide variant relative to the parent peptide” value in the test with FP receptor was “affected the activity of PCP-13 moderately”.

On to “ILGHRDY-amide ([dI][dL]G[dH][dR][dD][dY]-NH2) [PCP-13.20]”, for which the “% inhibition of maximal response” value in the test with FP receptor (setting [1]) is listed as 50.4%. In addition, in the test with FP receptor (100 μM peptide, 10^−7 M PGF2α), the “% Vasomotor response” value turned out to be 49.6%. Moreover, the “change of inhibitory activity of the peptide variant relative to the parent peptide” value with FP receptor is recorded as “moderate gain of activity”.

Turning to “ILGHRDYK (Peptide antagonist derived from the sequence of the Prostaglandin F2-alpha receptor.) [PCP-13]”, the “% inhibition of maximal response” value in the test with FP receptor (setting [1]) is listed as 80.0%. Moreover, the “% Vasomotor response” value with FP receptor (100 μM peptide, 10^−7 M PGF2α) was found to be 20.0%. In the test with FP receptor, the “change of inhibitory activity of the peptide variant relative to the parent peptide” value is reported as “increased the inhibitory potency dramatically”.

With “ILGHRDYK-amide ([dI][dL]G[dH][dR][dD][dY][dK]-NH2) [PCP-13.21]”, the “% inhibition of maximal response” value with FP receptor (setting [1]) is reported as 53.8%. Further, the “% Vasomotor response” value with FP receptor (100 μM peptide, 10^−7 M PGF2α) came to 46.2%. For the same substance, in the test with FP receptor, the “change of inhibitory activity of the peptide variant relative to the parent peptide” value was “moderate gain of activity”.

Turning to “ILGHRNYK (Peptide antagonist derived from the sequence of the Prostaglandin F2-alpha receptor.) [PCP-13.14]”, in the test with FP receptor (setting [1]), the “% inhibition of maximal response” value is listed as 59.7%. Also, in the test with FP receptor (100 μM peptide, 10^−7 M PGF2α), the “% Vasomotor response” value is 40.3%. Also, the “change of inhibitory activity of the peptide variant relative to the parent peptide” value with FP receptor is “moderate loss of activity”.

“ILGWRDYK (Peptide antagonist derived from the sequence of the Prostaglandin F2-alpha receptor.) [PCP-13.22]”: the “% inhibition of maximal response” value with FP receptor (setting [1]) was 83.4%. The “% Vasomotor response” value with FP receptor (100 μM peptide, 10^−7 M PGF2α) is reported as 16.6%. The “change of inhibitory activity of the peptide variant relative to the parent peptide” value with FP receptor is “did not result in significant reduction of peptide inhibitory potency”.

With “ILaHRDYK ([dI][dL]A[dH][dR][dD][dY][dK]; not fully specified (residue 3); printed as ILaHRDYK) [PCP-13.8]”, in the test with FP receptor (setting [1]), the “% inhibition of maximal response” value is listed as 53.2%. The “% Vasomotor response” value with FP receptor (100 μM peptide, 10^−7 M PGF2α) stood at 46.8%. Also, the “change of inhibitory activity of the peptide variant relative to the parent peptide” value with FP receptor is on record as “loss of activity”.

With “PCP-11: PCP-8 with the N-terminal hydrophobic dipeptide sequence removed (GHRDYK)”, the “change of inhibitory activity of the peptide variant relative to the parent peptide” value with FP receptor is “significant reduction in the inhibitory action”.

Regarding “PCP-12: PCP-10 with the N-terminal hydrophobic dipeptide sequence removed (DRFYLL)”, the “change of inhibitory activity of the peptide variant relative to the parent peptide” value in the test with FP receptor is on record as “significant reduction in the inhibitory action”.

Consider “PCP-13.9: PCP-13 with terminal lysine substituted with W ([dI][dL]G[dH][dR][dD][dY][dW])”, for which, in the test with FP receptor, the “change of inhibitory activity of the peptide variant relative to the parent peptide” value is given as “complete loss of activity”.

Consider “PCP-13.10: PCP-13 with aromatic residue Y substituted with E ([dI][dL]G[dH][dR][dD][dE][dK])”, for which the “change of inhibitory activity of the peptide variant relative to the parent peptide” value with FP receptor is “completely abolished the inhibitory potency”.

With “PCP-13.12: PCP-13 with D changed to E ([dI][dL]G[dH][dR][dE][dY][dK])”, the “change of inhibitory activity of the peptide variant relative to the parent peptide” value with FP receptor was “loss of half of the inhibitory activity”.

As for “PCP-13.15: PCP-13 with deletion of terminal lysine ([dI][dL]G[dH][dR][dD][dY])”, the “change of inhibitory activity of the peptide variant relative to the parent peptide” value with FP receptor is on record as “complete loss of activity”.

Turning to “PCP-13.16: PCP-13 with glycine changed to proline ([dI][dL][dP][dH][dR][dD][dY][dK])”, in the test with FP receptor, the “change of inhibitory activity of the peptide variant relative to the parent peptide” value is “loss of activity”.

As to “PCP-13.17: PCP-13 with the glycine residue deleted ([dI][dL][dH][dR][dD][dY][dK])”, the “change of inhibitory activity of the peptide variant relative to the parent peptide” value with FP receptor is “loss of activity”.

With “PCP-13.19: PCP-13 with a serine substitution of D ([dI][dL]G[dH][dR][dS][dY][dK])”, the “change of inhibitory activity of the peptide variant relative to the parent peptide” value with FP receptor was “drastic loss of activity”.

“PCP-13.23: PCP-13 with H changed to Y ([dI][dL]G[dY][dR][dD][dY][dK])”: the “change of inhibitory activity of the peptide variant relative to the parent peptide” value with FP receptor is recorded as “significant reduction of peptide inhibitory potency”.

As for “SNVLCSIF (Peptide antagonist derived from the sequence of the Prostaglandin F2-alpha receptor.) [PCP-15]”, the “% inhibition of maximal response” value in the test with FP receptor (setting [1]) is recorded as 88.1%. Further, the “% Vasomotor response” value with FP receptor (100 μM peptide, 10^−7 M PGF2α) was determined as 11.9%.

With WEDRFYLL [PCP-10, wedrfyll], the IC50 on human FP receptor was under 100 µM. For the same substance, the Emax at FP receptor (100 μM peptide, 10^−7 M PGF2α, calculated as 100-percent vasomotor response, read-out: % inhibition of maximal response) is 80%. The “% Vasomotor response” value at FP receptor (100 μM peptide, 10^−7 M PGF2α) was found to be 20.0%.

As for “YQDRFYLL (Peptide antagonist derived from the sequence of the Prostaglandin F2-alpha receptor.) [PCP-14]”, the “% inhibition of maximal response” value with FP receptor (setting [1]) is given as 64.0%. Further, the “% Vasomotor response” value with FP receptor (100 μM peptide, 10^−7 M PGF2α) was found to be 36.0%.

These data come from patent US6984719B1, “Peptide antagonists of prostaglandin F2α receptor” (Hospital Sainte-Justine, priority 1998, dated 2006).
